{"source": "paper doi:10.1101/2024.10.11.617762", "target": "SARS-CoV-2 nucleocapsid C-terminal domain (N-CTD) (SARS-CoV-2, UniProt P0DTC9 247-364)", "test": "fluorescence intensity", "data": [{"binder": "UCUCUAAACG (ssRNA)", "note": "[FAM-labelled 10-mer TRS RNA probe]", "values": [{"measurement": "binding result", "result": "binds"}]}]}
